Among the data in the supplement of paper PMC10567573 are protein stability index values, retold here.

B1: VAMP4 (parent)
chain: FLRGPSGPRFGPRNDKIKHVQNQV
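Also: lentivirally expressed fusions sorted by FACS into six bins by GFP to DsRed ratio, PSI derived from sequencing read proportions per bin multiplied by bin number.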

Variants of B1 are the subject of this data set. As to the kind of experiment: protein stability index of a GFP-peptide fusion (GPS, HEK-293T) (PSI 1-6); higher = more stable. As to conditions: c terminus: a fixed tail appended.
Turning to FLRGASGPRFGPRNDKIKHVQNQV [P5A], the protein stability index was determined as 2.79.
Turning to FLRGNSGPRFGPRNDKIKHVQNQV [P5N], the protein stability index turned out to be 2.94.
With FLRGFSGPRFGPRNDKIKHVQNQV [P5F], the protein stability index is 2.29.
Consider FLRGCSGPRFGPRNDKIKHVQNQV [P5C], for which the protein stability index stood at 2.48.
Under FLRGISGPRFGPRNDKIKHVQNQV [P5I] stands 2.17; under FLRGHSGPRFGPRNDKIKHVQNQV [P5H], 3.3; under FLRGTSGPRFGPRNDKIKHVQNQV [P5T], 2.86.
Under FLRGQSGPRFGPRNDKIKHVQNQV [P5Q] stands 2.98.
With FLRGVSGPRFGPRNDKIKHVQNQV [P5V], the protein stability index is 2.29.
On to FLRGMSGPRFGPRNDKIKHVQNQV [P5M], for which the protein stability index turned out to be 2.37.
With FLRGESGPRFGPRNDKIKHVQNQV [P5E], the protein stability index amounted to 3.15.
For FLRGSSGPRFGPRNDKIKHVQNQV [P5S], the protein stability index was 2.96.
For FLRGYSGPRFGPRNDKIKHVQNQV [P5Y] the value was 2.04; for FLRGRSGPRFGPRNDKIKHVQNQV [P5R], 2.72; for FLRGDSGPRFGPRNDKIKHVQNQV [P5D], 3.36.
Take FLRGLSGPRFGPRNDKIKHVQNQV [P5L]: the protein stability index was found to be 2.59.
Turning to FLRGWSGPRFGPRNDKIKHVQNQV [P5W], the protein stability index was found to be 1.55.
FLRGKSGPRFGPRNDKIKHVQNQV [P5K]: the protein stability index stood at 2.95.
For FLRGPSGPGFGPRNDKIKHVQNQV [R9G] the value was 2.49; for FLRGPSGPPFGPRNDKIKHVQNQV [R9P], 2.49.
With FLRGPSGPIFGPRNDKIKHVQNQV [R9I], the protein stability index stood at 2.17.
Regarding FLRGPSGPCFGPRNDKIKHVQNQV [R9C], the protein stability index was 1.76.
As to FLRGPSGPTFGPRNDKIKHVQNQV [R9T], the protein stability index came out at 2.75.
Take FLRGPSGPFFGPRNDKIKHVQNQV [R9F]: the protein stability index is 1.9.
In the case of FLRGPSGPDFGPRNDKIKHVQNQV [R9D], the protein stability index came out at 2.91.
With FLRGPSGPHFGPRNDKIKHVQNQV [R9H], the protein stability index was determined as 2.28.
For FLRGPSGPWFGPRNDKIKHVQNQV [R9W] the value was 2.93; for FLRGPSGPNFGPRNDKIKHVQNQV [R9N], 3.01.
In the case of FLRGPSGPLFGPRNDKIKHVQNQV [R9L], the protein stability index was found to be 2.06.
On to FLRGPSGPKFGPRNDKIKHVQNQV [R9K], for which the protein stability index was found to be 3.87.
For FLRGPSGPQFGPRNDKIKHVQNQV [R9Q] the value was 2.93; for FLRGPSGPYFGPRNDKIKHVQNQV [R9Y], 2.04; for FLRGPSGPEFGPRNDKIKHVQNQV [R9E], 3.
Regarding FLRGPSGPSFGPRNDKIKHVQNQV [R9S], the protein stability index amounted to 2.69.
Take FLRGPSGPMFGPRNDKIKHVQNQV [R9M]: the protein stability index turned out to be 2.46.
FLRGPSGPAFGPRNDKIKHVQNQV [R9A]: the protein stability index stood at 2.
In the case of FLRGPSGPVFGPRNDKIKHVQNQV [R9V], the protein stability index was found to be 2.18.
Under FLRGPSGPRFGCRNDKIKHVQNQV [P12C] stands 2.13; under FLRGPSGPRFGERNDKIKHVQNQV [P12E], 3.63; under FLRGPSGPRFGARNDKIKHVQNQV [P12A], 2.54.
In the case of FLRGPSGPRFGLRNDKIKHVQNQV [P12L], the protein stability index worked out at 2.2.
For the variant FLRGPSGPRFGMRNDKIKHVQNQV [P12M], the protein stability index came to 2.61.
Under FLRGPSGPRFGRRNDKIKHVQNQV [P12R] stands 2.59; under FLRGPSGPRFGGRNDKIKHVQNQV [P12G], 2.99.
FLRGPSGPRFGYRNDKIKHVQNQV [P12Y]: the protein stability index came out at 2.75.
For the variant FLRGPSGPRFGTRNDKIKHVQNQV [P12T], the protein stability index is 3.37.
For FLRGPSGPRFGFRNDKIKHVQNQV [P12F], the protein stability index amounted to 2.7.
For FLRGPSGPRFGWRNDKIKHVQNQV [P12W] the value was 1.88; for FLRGPSGPRFGQRNDKIKHVQNQV [P12Q], 2.34.
On to FLRGPSGPRFGIRNDKIKHVQNQV [P12I], for which the protein stability index is 2.87.
On to FLRGPSGPRFGNRNDKIKHVQNQV [P12N], for which the protein stability index was 3.12.
In the case of FLRGPSGPRFGSRNDKIKHVQNQV [P12S], the protein stability index came out at 3.27.
As to FLRGPSGPRFGVRNDKIKHVQNQV [P12V], the protein stability index is 2.86.
Take FLRGPSGPRFGHRNDKIKHVQNQV [P12H]: the protein stability index turned out to be 2.75.
Consider FLRGPSGPRFGDRNDKIKHVQNQV [P12D], for which the protein stability index is 3.08.
Turning to FLRGPSGPRFGKRNDKIKHVQNQV [P12K], the protein stability index amounted to 2.89.
As to FLRGPSGIRFGPRNDKIKHVQNQV [P8I], the protein stability index stood at 2.53.
With FLRGPSGGRFGPRNDKIKHVQNQV [P8G], the protein stability index is 2.41.
With FLRGPSGVRFGPRNDKIKHVQNQV [P8V], the protein stability index was found to be 2.54.
In the case of FLRGPSGFRFGPRNDKIKHVQNQV [P8F], the protein stability index was 2.28.
With FLRGPSGARFGPRNDKIKHVQNQV [P8A], the protein stability index stood at 2.62.
For FLRGPSGQRFGPRNDKIKHVQNQV [P8Q] the value was 1.96.
Take FLRGPSGDRFGPRNDKIKHVQNQV [P8D]: the protein stability index was 3.01.
For FLRGPSGERFGPRNDKIKHVQNQV [P8E] the value was 3.19; for FLRGPSGHRFGPRNDKIKHVQNQV [P8H], 2.52; for FLRGPSGNRFGPRNDKIKHVQNQV [P8N], 2.63.
Turning to FLRGPSGLRFGPRNDKIKHVQNQV [P8L], the protein stability index stood at 1.61.
As to FLRGPSGCRFGPRNDKIKHVQNQV [P8C], the protein stability index was 2.44.
As to FLRGPSGYRFGPRNDKIKHVQNQV [P8Y], the protein stability index came out at 2.47.
For FLRGPSGWRFGPRNDKIKHVQNQV [P8W] the value was 1.79; for FLRGPSGSRFGPRNDKIKHVQNQV [P8S], 2.58; for FLRGPSGTRFGPRNDKIKHVQNQV [P8T], 2.71.
Turning to FLRGPSGMRFGPRNDKIKHVQNQV [P8M], the protein stability index was 2.53.
As for FLRGPSGKRFGPRNDKIKHVQNQV [P8K], the protein stability index stood at 2.07.
For FLRGPSGRRFGPRNDKIKHVQNQV [P8R] the value was 2.35.
For FLRGPSGPRFCPRNDKIKHVQNQV [G11C] the value was 2.37; for FLRGPSGPRFQPRNDKIKHVQNQV [G11Q], 2.78.
For FLRGPSGPRFFPRNDKIKHVQNQV [G11F] the value was 2.2.
Take FLRGPSGPRFMPRNDKIKHVQNQV [G11M]: the protein stability index worked out at 2.52.
For the variant FLRGPSGPRFKPRNDKIKHVQNQV [G11K], the protein stability index was found to be 2.57.
On to FLRGPSGPRFHPRNDKIKHVQNQV [G11H], for which the protein stability index is 2.81.
Consider FLRGPSGPRFEPRNDKIKHVQNQV [G11E], for which the protein stability index was 3.51.
With FLRGPSGPRFRPRNDKIKHVQNQV [G11R], the protein stability index stood at 2.34.
With FLRGPSGPRFYPRNDKIKHVQNQV [G11Y], the protein stability index worked out at 2.16.
As for FLRGPSGPRFDPRNDKIKHVQNQV [G11D], the protein stability index came out at 2.63.
Consider FLRGPSGPRFIPRNDKIKHVQNQV [G11I], for which the protein stability index was 2.12.
Under FLRGPSGPRFSPRNDKIKHVQNQV [G11S] stands 2.65; under FLRGPSGPRFTPRNDKIKHVQNQV [G11T], 2.18; under FLRGPSGPRFNPRNDKIKHVQNQV [G11N], 2.95.
For FLRGPSGPRFLPRNDKIKHVQNQV [G11L] the value was 2.47; for FLRGPSGPRFPPRNDKIKHVQNQV [G11P], 2.91.
Take FLRGPSGPRFWPRNDKIKHVQNQV [G11W]: the protein stability index is 2.45.
As for FLRGPSGPRFAPRNDKIKHVQNQV [G11A], the protein stability index was determined as 2.75.
As for FLRGPSGPRFVPRNDKIKHVQNQV [G11V], the protein stability index amounted to 1.97.
